The record followed here is paper PMC2474647.

The target in the assay is GST-HP1β (UniProt P83917). Put plainly: pull-down; GST-HP1β bound to glutathione beads, in nuclear extraction buffer, incubated with FLAG-TIF1βs purified from 293T cells by FLAG peptide elution; Western blot quantified with ImageGauge, normalised to GST-HP1β. In general terms: In western blotting, separated proteins are transferred to a membrane and probed.
Chain of UniProt P83917 (P83917 whole entry): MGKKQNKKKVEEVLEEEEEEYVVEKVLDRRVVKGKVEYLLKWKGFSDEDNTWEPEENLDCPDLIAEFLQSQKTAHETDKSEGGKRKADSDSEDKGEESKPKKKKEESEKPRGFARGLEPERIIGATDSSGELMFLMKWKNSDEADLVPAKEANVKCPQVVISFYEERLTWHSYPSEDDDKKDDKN

Take “FLAG-TIF1β/S473A, expressed in 293T cells (natural protein)”: the relative level pulled down by GST-HP1β (normalised to GST-HP1β) was 1.63.
“FLAG-TIF1β (wild type), expressed in 293T cells (natural protein)” displayed a relative level pulled down by GST-HP1β (normalised to GST-HP1β) of 1.39.
